# Assay results from IntAct's records for PubMed 35512704.
# B1: Mothers against decapentaplegic homolog 4 (Homo sapiens), Q13485 (parent)
# chain: MDNMSITNTPTSNDACLSIVHSLMCHRQGGESETFAKRAIESLVKKLKEKKDELDSLITAITTNGAHPSKCVTIQRTLDGRLQVAGRKGFPHVIYARLWRWPDLHKNELKHVKYCQYAFDLKCDSVCVNPYHYERVVSPGIDLSGLTLQSNAPSSMMVKDEYVHDFEGQPSLSTEGHSIQTIQHPPSNRASTETYSTPALLAPSESNATSTANFPNIPVASTSQPASILGGSHSEGLLQIASGPQPGQQQNGFTGQPATYHHNSTTTWTGSRTAPYTPNLPHHQNGHLQHHPPMPPHPGHYWPVHNELAFQPPISNHPAPEYWCSIAYFEMDVQVGETFKVPSSCPIVTVDGYVDPSGGDRFCLGQLSNVHRTEAIERARLHIGKGVQLECKGEGDVWVRCLSDHAVFVQSYYLDREAGRAPGDAVHKIYPSAYIKVFDLRQCHRQMQQQAATAQAAAAAQAAAVAGNIPGPGSVGGIAPAISLSAAAGIGVDDLRRLCILRMSFVKGWGPDYPRQSIKETPCWIEIHLHRALQLLDEVLHTMPIADPQPLD
# partner: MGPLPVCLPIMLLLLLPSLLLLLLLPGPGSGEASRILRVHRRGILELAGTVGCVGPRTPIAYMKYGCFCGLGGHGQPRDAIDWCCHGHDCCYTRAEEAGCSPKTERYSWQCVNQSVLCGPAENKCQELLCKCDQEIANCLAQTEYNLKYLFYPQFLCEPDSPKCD
# B2: Mothers against decapentaplegic homolog 4 (Homo sapiens), Q13485 (parent)
# chain: B1 chain
# partner: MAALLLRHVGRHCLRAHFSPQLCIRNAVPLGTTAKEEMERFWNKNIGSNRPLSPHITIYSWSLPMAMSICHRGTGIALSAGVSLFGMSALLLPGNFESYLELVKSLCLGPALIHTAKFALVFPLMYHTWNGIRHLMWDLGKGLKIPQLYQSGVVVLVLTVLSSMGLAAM
# B3: Mothers against decapentaplegic homolog 4 (Homo sapiens), Q13485 (parent)
# chain: B1 chain
# partner: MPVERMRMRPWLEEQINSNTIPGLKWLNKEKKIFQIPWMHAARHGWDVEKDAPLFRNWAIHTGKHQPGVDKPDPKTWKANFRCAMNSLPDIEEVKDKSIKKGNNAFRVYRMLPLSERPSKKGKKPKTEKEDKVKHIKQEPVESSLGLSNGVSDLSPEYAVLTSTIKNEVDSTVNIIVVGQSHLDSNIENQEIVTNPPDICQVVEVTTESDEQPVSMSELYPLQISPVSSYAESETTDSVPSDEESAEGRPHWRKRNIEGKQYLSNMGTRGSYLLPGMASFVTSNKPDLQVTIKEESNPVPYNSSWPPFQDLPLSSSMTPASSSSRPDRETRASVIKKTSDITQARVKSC
# B4: Mothers against decapentaplegic homolog 4 (Homo sapiens), Q13485 (parent)
# chain: B1 chain
# partner: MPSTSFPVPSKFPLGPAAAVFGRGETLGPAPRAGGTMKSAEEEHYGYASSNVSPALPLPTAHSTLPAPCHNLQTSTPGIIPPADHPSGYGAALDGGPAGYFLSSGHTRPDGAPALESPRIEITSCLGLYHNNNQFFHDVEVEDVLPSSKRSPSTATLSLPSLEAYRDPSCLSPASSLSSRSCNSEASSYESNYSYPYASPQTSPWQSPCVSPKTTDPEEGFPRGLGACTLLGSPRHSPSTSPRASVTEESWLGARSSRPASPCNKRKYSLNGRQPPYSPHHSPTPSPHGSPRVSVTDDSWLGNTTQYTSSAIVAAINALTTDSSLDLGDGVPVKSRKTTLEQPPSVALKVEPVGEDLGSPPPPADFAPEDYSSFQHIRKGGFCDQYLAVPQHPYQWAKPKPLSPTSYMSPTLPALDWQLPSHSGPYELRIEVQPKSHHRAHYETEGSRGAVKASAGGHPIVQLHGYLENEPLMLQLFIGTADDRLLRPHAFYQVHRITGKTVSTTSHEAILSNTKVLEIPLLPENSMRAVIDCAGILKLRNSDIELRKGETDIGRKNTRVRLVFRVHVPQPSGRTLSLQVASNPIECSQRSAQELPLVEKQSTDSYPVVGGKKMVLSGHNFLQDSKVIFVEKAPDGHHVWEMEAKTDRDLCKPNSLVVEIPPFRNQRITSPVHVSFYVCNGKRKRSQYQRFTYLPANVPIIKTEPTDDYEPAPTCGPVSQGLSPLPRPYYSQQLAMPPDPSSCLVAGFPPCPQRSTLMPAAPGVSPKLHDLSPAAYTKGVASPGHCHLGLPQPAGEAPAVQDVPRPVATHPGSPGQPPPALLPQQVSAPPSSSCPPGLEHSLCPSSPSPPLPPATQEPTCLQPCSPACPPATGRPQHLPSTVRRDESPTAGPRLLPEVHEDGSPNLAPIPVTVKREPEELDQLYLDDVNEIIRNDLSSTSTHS
# B5: Mothers against decapentaplegic homolog 4 (Homo sapiens), Q13485 (parent)
# chain: B1 chain
# partner: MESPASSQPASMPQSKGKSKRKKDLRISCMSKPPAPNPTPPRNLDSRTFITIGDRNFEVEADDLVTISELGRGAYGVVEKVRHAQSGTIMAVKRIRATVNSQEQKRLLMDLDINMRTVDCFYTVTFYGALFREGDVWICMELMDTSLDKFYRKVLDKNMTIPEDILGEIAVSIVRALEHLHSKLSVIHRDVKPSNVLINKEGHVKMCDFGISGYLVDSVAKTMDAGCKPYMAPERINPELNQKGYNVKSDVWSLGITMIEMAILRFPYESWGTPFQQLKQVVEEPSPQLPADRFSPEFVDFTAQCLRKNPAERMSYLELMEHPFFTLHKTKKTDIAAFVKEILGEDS
# B6: Mothers against decapentaplegic homolog 4 (Homo sapiens), Q13485 (parent)
# chain: B1 chain
# partner: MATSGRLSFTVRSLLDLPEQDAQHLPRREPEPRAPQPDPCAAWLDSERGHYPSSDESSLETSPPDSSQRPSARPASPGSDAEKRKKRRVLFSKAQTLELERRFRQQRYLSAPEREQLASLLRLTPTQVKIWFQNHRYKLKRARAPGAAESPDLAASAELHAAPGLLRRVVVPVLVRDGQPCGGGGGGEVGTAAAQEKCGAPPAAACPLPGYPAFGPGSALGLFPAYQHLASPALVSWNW
# B7: Mothers against decapentaplegic homolog 4 (Homo sapiens), Q13485 (parent)
# chain: B1 chain
# partner: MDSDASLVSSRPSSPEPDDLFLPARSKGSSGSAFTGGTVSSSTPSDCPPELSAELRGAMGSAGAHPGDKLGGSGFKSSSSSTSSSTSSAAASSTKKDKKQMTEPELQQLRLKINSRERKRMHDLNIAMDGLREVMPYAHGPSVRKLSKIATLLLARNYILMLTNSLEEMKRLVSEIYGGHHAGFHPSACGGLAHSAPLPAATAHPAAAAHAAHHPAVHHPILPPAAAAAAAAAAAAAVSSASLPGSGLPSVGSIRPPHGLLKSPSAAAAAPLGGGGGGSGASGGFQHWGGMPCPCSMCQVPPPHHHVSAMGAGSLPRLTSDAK
# B8: Mothers against decapentaplegic homolog 4 (Homo sapiens), Q13485 (parent)
# chain: B1 chain
# partner: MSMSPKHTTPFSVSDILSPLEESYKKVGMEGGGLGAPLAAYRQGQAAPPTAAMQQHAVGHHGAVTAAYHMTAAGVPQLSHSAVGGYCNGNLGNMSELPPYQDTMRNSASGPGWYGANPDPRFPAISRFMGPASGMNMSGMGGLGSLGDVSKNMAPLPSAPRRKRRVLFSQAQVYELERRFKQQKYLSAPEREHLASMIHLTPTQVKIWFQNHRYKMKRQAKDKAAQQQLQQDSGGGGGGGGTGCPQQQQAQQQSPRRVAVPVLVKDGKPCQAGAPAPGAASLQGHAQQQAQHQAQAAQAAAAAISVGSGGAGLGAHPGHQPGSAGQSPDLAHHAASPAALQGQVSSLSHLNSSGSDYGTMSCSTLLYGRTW
# Variants of: B1
# Conditions: with pa2gx_human PLA2G10, O15496
row,effect of a mutation on the interaction,Variant
1,with no effect,G386D

# Variants of: B2
# Conditions: with c560_human SDHC
row,effect of a mutation on the interaction,Variant
1,with no effect,D351H

# Variants of: B2
# Conditions: with c560_human SDHC
# Remark: another data set of the same source
row,effect of a mutation on the interaction,Variant
1,with no effect,R361C

# Variants of: B2
# Conditions: with c560_human SDHC
# Remark: another data set of the same source
row,effect of a mutation on the interaction,Variant
1,with no effect,R361H

# Variants of: B2
# Conditions: with c560_human SDHC
# Remark: another data set of the same source
row,effect of a mutation on the interaction,Variant
1,with no effect,G386D

# Variants of: B3
# Conditions: with irf2_human IRF2, P14316
row,effect of a mutation on the interaction,Variant
1,with no effect,G386D

# Variants of: B3
# Conditions: with irf2_human IRF2, P14316
# Remark: another data set of the same source
row,effect of a mutation on the interaction,Variant
1,with no effect,R361C

# Variants of: B4
# Conditions: with nfac1_human NFATC1, O95644
row,effect of a mutation on the interaction,Variant
1,with no effect,R361H

# Variants of: B4
# Conditions: with nfac1_human NFATC1, O95644
# Remark: another data set of the same source
row,effect of a mutation on the interaction,Variant
1,with no effect,R361C

# Variants of: B4
# Conditions: with nfac1_human NFATC1, O95644
# Remark: another data set of the same source
row,effect of a mutation on the interaction,Variant
1,with no effect,D351H

# Variants of: B4
# Conditions: with nfac1_human NFATC1, O95644
# Remark: another data set of the same source
row,effect of a mutation on the interaction,Variant
1,with no effect,G386D

# Variants of: B5
# Conditions: with mp2k3_human MAP2K3, P46734
row,effect of a mutation on the interaction,Variant
1,with no effect,D351H

# Variants of: B5
# Conditions: with mp2k3_human MAP2K3, P46734
# Remark: another data set of the same source
row,effect of a mutation on the interaction,Variant
1,with no effect,R361C

# Variants of: B5
# Conditions: with mp2k3_human MAP2K3, P46734
# Remark: another data set of the same source
row,effect of a mutation on the interaction,Variant
1,with no effect,R361H

# Variants of: B5
# Conditions: with mp2k3_human MAP2K3, P46734
# Remark: another data set of the same source
row,effect of a mutation on the interaction,Variant
1,with no effect,G386D

# Variants of: B6
# Conditions: with nkx28_human NKX2-8, O15522
row,effect of a mutation on the interaction,Variant
1,with no effect,D351H

# Variants of: B6
# Conditions: with nkx28_human NKX2-8, O15522
# Remark: another data set of the same source
row,effect of a mutation on the interaction,Variant
1,with no effect,G386D

# Variants of: B6
# Conditions: with nkx28_human NKX2-8, O15522
# Remark: another data set of the same source
row,effect of a mutation on the interaction,Variant
1,with no effect,R361C

# Variants of: B6
# Conditions: with nkx28_human NKX2-8, O15522
# Remark: another data set of the same source
row,effect of a mutation on the interaction,Variant
1,with no effect,R361H

# Variants of: B7
# Conditions: with olig2_human OLIG2, Q13516
row,effect of a mutation on the interaction,Variant
1,with no effect,R361C

# Variants of: B7
# Conditions: with olig2_human OLIG2, Q13516
# Remark: another data set of the same source
row,effect of a mutation on the interaction,Variant
1,with no effect,R361H

# Variants of: B7
# Conditions: with olig2_human OLIG2, Q13516
# Remark: another data set of the same source
row,effect of a mutation on the interaction,Variant
1,with no effect,D351H

# Variants of: B7
# Conditions: with olig2_human OLIG2, Q13516
# Remark: another data set of the same source
row,effect of a mutation on the interaction,Variant
1,with no effect,G386D

# Variants of: B8
# Conditions: with nkx21_human NKX2-1, P43699
row,effect of a mutation on the interaction,Variant
1,with no effect,G386D
